Measured values published in patent US20150274807A1 (SUZHOU ALPHAMAB, published 2015).

B1: Fc protein K392D/K409D/D399K (other)
chain: GSGGGDKTHTCPPCPAPELLGGPSVFLFPPKPKDTLMISRTPEVTCVVVDVSHENPEVKFNWYVDGVEVHNAKTKPREEQYNSTYRVVSVLTVLHQDWLNGKEYKCKVSNKALPAPIEKTISKAKGQPREPQVYTLPPSREEMTKNQVSLTCLVKGFYPSDIAVEWESNGQPENNYDTTPPVLKSDGSFFLYSDLTVDKSRWQQGNVFSCSVMHEALHNHYTQKSLSLSPGK
notes: Monomer chain; EU numbering is K392D/K409D/D399K; also called Fc-mix1; Fc of mutation combinations 1, 5 and 6

Key:
[1] = molecular target: B1; assay: co-transfection 1:1 in 293H, protein A pull-down, non-reducing SDS-PAGE densitometry
Experimental: (§1) The expression vectors harbor 8 mutation combinations in step 3 were separately transfected with PEI into suspension adapted 293H cells (ATCC CRL-1573), the co-transfection ratio of plasmids pcDNA3.1-zeo-ScFv-Fc to pcMVβ-SP-Fc was 1:1, and after 3-4 days, cell culture supernatant was collected. Immuno precipitation was performed with protein A agarose resin, and the content of the homodimer proteins or antibodies (ScFv-Fc/ScFv-Fc and Fc/Fc) and the heterodimer protein or antibody (ScFv-Fc/Fc) was detected by SDS-PAGE under non-reducing conditions. Gel-Pro professional image analysis software (Media Cybernetics company) was used for analyzing the proportion of the homodimer proteins or antibodies (ScFv-Fc/ScFv-Fc and Fc/Fc) and the heterodimer protein or antibody (ScFv-Fc/Fc). […] In addition, when E357K/K370E/K392D/K409D/D399K (mutation combination 4) was introduced on Fc, the stability should be further investigated because of the appearance of Fc monomers (about 6%).

[2] = molecular target: the molecule itself; assay: co-transfection 1:1 in 293H, protein A pull-down, non-reducing SDS-PAGE densitometry; co-expressed with Fc K392D/K409D/D399K
Experimental: as §1

[3] = molecular target: the molecule itself; assay: co-transfection 1:1 in 293H, protein A pull-down, non-reducing SDS-PAGE densitometry; co-expressed with ScFv-Fc WT
Experimental: as §1

Binder | proportion of ScFv-Fc/Fc heterodimer on SDS-PAGE [1] [%] | proportion of ScFv-Fc homodimer on SDS-PAGE [2] [%] | proportion of Fc homodimer on SDS-PAGE [3] [%]
ScFv-Fc protein E356K/K439E (Fc fusion, Monomer chain; also called scFv-Fcmix1; ScFv-Fc of mutation combination 6) EVQLLESGGGVVQPGRSLRLSCIASGFTFSSYPMTWVRQAPGKGLEWVASISYDGSYKYKADSMKGRLTISRDNSKNTLYLEMNSLTAEDTAVYYCARTAFFNAYDFWGQGTLVTVSSASTKGPSVGGGGSGGGGSEIVMTQSPATLSVSPGERATLSCRASQSVRSNLAWYQQKPGQAPRLLIYAASTRATGIPARFSGSGSGTEFTLTISSLQSEDFAVYYCQQYNEWFRTSGQGTKVEIKRDKTHTCPPCPAPELLGGPSVFLFPPKPKDTLMISRTPEVTCVVVDVSHENPEVKFNWYVDGVEVHNAKTKPREEQYNSTYRVVSVLTVLHQDWLNGKEYKCKVSNKALPAPIEKTISKAKGQPREPQVYTLPPSRKEMTKNQVSLTCLVKGFYPSDIAVEWESNGQPENNYKTTPPVLDSDGSFFLYSKLTVDKSRWQQGNVFSCSVMHEALHNHYTQESLSLSPGK | 8.4 | 31.2 | –
ScFv-Fc protein E357K/K370E (Fc fusion, Monomer chain; also called ScFv-Fc of mutation combination 5) EVQLLESGGGVVQPGRSLRLSCIASGFTFSSYPMTWVRQAPGKGLEWVASISYDGSYKYKADSMKGRLTISRDNSKNTLYLEMNSLTAEDTAVYYCARTAFFNAYDFWGQGTLVTVSSASTKGPSVGGGGSGGGGSEIVMTQSPATLSVSPGERATLSCRASQSVRSNLAWYQQKPGQAPRLLIYAASTRATGIPARFSGSGSGTEFTLTISSLQSEDFAVYYCQQYNEWFRTSGQGTKVEIKRDKTHTCPPCPAPELLGGPSVFLFPPKPKDTLMISRTPEVTCVVVDVSHENPEVKFNWYVDGVEVHNAKTKPREEQYNSTYRVVSVLTVLHQDWLNGKEYKCKVSNKALPAPIEKTISKAKGQPREPQVYTLPPSREKMTKNQVSLTCLVEGFYPSDIAVEWESNGQPENNYKTTPPVLDSDGSFFLYSKLTVDKSRWQQGNVFSCSVMHEALHNHYTQKSLSLSPGK | 5.9 | 41.5 | –
Fc protein E357K/K370E (other, Monomer chain; also called Fc of mutation combination 3) GSGGGDKTHTCPPCPAPELLGGPSVFLFPPKPKDTLMISRTPEVTCVVVDVSHENPEVKFNWYVDGVEVHNAKTKPREEQYNSTYRVVSVLTVLHQDWLNGKEYKCKVSNKALPAPIEKTISKAKGQPREPQVYTLPPSREKMTKNQVSLTCLVEGFYPSDIAVEWESNGQPENNYKTTPPVLDSDGSFFLYSKLTVDKSRWQQGNVFSCSVMHEALHNHYTQKSLSLSPGK | – | – | 47.5
Fc protein E357K/K370E/K392D/K409D/D399K (other, Monomer chain; also called Fc-mix13; Fc of mutation combination 4) GSGGGDKTHTCPPCPAPELLGGPSVFLFPPKPKDTLMISRTPEVTCVVVDVSHENPEVKFNWYVDGVEVHNAKTKPREEQYNSTYRVVSVLTVLHQDWLNGKEYKCKVSNKALPAPIEKTISKAKGQPREPQVYTLPPSREKMTKNQVSLTCLVEGFYPSDIAVEWESNGQPENNYDTTPPVLKSDGSFFLYSDLTVDKSRWQQGNVFSCSVMHEALHNHYTQKSLSLSPGK | – | – | 28.7
Fc protein D399K/K409D (other, Monomer chain; also called Fc of mutation combination 8) GSGGGDKTHTCPPCPAPELLGGPSVFLFPPKPKDTLMISRTPEVTCVVVDVSHENPEVKFNWYVDGVEVHNAKTKPREEQYNSTYRVVSVLTVLHQDWLNGKEYKCKVSNKALPAPIEKTISKAKGQPREPQVYTLPPSREEMTKNQVSLTCLVKGFYPSDIAVEWESNGQPENNYKTTPPVLKSDGSFFLYSDLTVDKSRWQQGNVFSCSVMHEALHNHYTQKSLSLSPGK | – | – | 43.4
Fc protein K392D/D399K (other, Monomer chain; also called Fc of mutation combination 7) GSGGGDKTHTCPPCPAPELLGGPSVFLFPPKPKDTLMISRTPEVTCVVVDVSHENPEVKFNWYVDGVEVHNAKTKPREEQYNSTYRVVSVLTVLHQDWLNGKEYKCKVSNKALPAPIEKTISKAKGQPREPQVYTLPPSREEMTKNQVSLTCLVKGFYPSDIAVEWESNGQPENNYDTTPPVLKSDGSFFLYSKLTVDKSRWQQGNVFSCSVMHEALHNHYTQKSLSLSPGK | – | – | 44.7
Fc protein E356K/K439E (other, Monomer chain; also called Fc of mutation combination 2) GSGGGDKTHTCPPCPAPELLGGPSVFLFPPKPKDTLMISRTPEVTCVVVDVSHENPEVKFNWYVDGVEVHNAKTKPREEQYNSTYRVVSVLTVLHQDWLNGKEYKCKVSNKALPAPIEKTISKAKGQPREPQVYTLPPSRKEMTKNQVSLTCLVKGFYPSDIAVEWESNGQPENNYKTTPPVLDSDGSFFLYSKLTVDKSRWQQGNVFSCSVMHEALHNHYTQESLSLSPGK | – | – | 41.1
B1 | – | – | 51.3
